Biological target: T1, Canine parvovirus (CPV) capsid (Canine parvovirus type 2 (CPV-2), …)
T1 chain: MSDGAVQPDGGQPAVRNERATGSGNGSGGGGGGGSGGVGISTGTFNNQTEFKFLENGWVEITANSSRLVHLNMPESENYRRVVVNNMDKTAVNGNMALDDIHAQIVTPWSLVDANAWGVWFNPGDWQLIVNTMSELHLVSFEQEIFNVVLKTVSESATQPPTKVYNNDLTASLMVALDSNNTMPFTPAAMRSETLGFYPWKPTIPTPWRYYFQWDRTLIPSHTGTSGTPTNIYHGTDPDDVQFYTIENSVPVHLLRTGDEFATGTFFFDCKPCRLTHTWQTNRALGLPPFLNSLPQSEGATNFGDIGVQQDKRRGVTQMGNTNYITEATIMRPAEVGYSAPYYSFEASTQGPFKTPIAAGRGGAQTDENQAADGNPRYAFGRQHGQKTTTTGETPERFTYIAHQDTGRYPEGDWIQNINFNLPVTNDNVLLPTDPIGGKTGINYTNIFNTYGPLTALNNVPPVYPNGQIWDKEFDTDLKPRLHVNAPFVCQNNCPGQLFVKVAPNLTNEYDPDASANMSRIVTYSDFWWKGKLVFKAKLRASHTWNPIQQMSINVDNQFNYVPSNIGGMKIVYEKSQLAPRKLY
Assay: cryo-EM structure

B1: Fab of MAb 14 (Fab 14) (Fab, V domains shown)
VH: AVHLQGTELVKPGASAGVKLSCKASGYTFTNYDMNWVRQRPEQGLEWIGWIFPGDGSTRYNEKFKGKATLTTDKSSSTAYQLNRLTSEDSAVYFCARRGSHGSYSFAYWGQGTLVTVSG
VL: DIVMTQSHKFMSTSVGDRVSITCKASQDVNTALAWYQQIPGQSPKLLIYSASNRYTGVPDRFTASGSGTDFTFTISSVQAEDLALYYCQQHYTTPWTFGGGTKLEIK
  stoichiometry N: ~60 Fab per capsid
